Laboratory results as given in the DeepSol protein solubility set.

assay: soluble on expression in E. coli; label from the status in PepcDB or PDB records

| Sequence | soluble on expression in E. coli |
| --- | --- |
| MPFRSNNPITRDELLSRFFPQFHPVTTFNSGLSGGSFLIEHQGQRFVVRQPHDPDAPQSAFLRQYRALSQLPASIAPKPHLYLRDWMVVDYLPGAVKTYLPDTNELAGLLYYLHQQPRFGWRITLLPLLELYWQQSDPARRTVGWLRMLKRLRKAREPRPLRLSPLHMDVHAGNLVHSASGLKLIDWEYAGDGDIALELAAVWVENTEQHRQLVNDYATRAKIYPAQLWRQVRRWFPWLLMLKGGWFEYRWRQTGDQQFIRLADDTWRQLLIKQ | not soluble |
| MPGACGIYALATVSKPDPDMTQIITALAEISERYRALFVDLWGCVHNGVTAYPEAVAALQAYRAAGGIVVLVTNSPKPRAGVATQLSQFKVPQDAYDTIATSGDSARSAMFRGAVGQKVYFMGEWERDAGFFEPLKLLDSPVEITRVPLQEAEGIVCCGPFDPMADPAVNRPDFLYAKTKGMKLLCANPDIVVDRGEIREWCAGALARLYTEMGGESLYFGKPHPPIYDLARRRLLSLGADIADSEILAIGDGIQTDIAGGQGEGIDSLFISGGLAASETKTGHSPDPAALTAYLDRENRMPTYTIGQLR | not soluble |
| MPGITFKEDANERGRQIEHWPLLKNGSIFVIADDGTRYFQEDAKHRHGHVYTHGSWLIPMNNQHPYLIFDQTQYDAFKQEESQAGQLPYPKFMTKLVSAPTIAQLAAKLGVPANNLQQTVTDFNHYTEVGRDFEFGRDPQTMRQLDDGPYYAIAALEHHHHHH | soluble |
| MPHWLVIDLEATTAEGGWPLEEMEIIEIGATLVAAADARELDHFQRFVRPVRRPLLTHFCRDLTHISQANVDGAAHLNTVWEAFERWLAQHRPRLAGWASWGDYDRRQLEQEWRQHGLTSQLSEVPHVNLKQRFGEVRQLPRPVGLNAALQLAGMSFQGQQHRALEDARNTARLLPLVLPVEHLEHHHHHH | soluble |
| MPICTRLTAQIVKVAVNQPVAIRSSMWAKNNQNIHFMNLHVKKLEKLLLF | not soluble |
| MPIKVKYYGNVVFASDAVCGQAENYATLKAMKEVGNYTISIQTFENAENVYPEEFLAKPVADEHYLTTEDGSVGIKGHYLDIVKELIEKDKVDIIFAGGKLGSLAKLAELTRPYGIPTLEHHHHHH | not soluble |
| MPITPPLNIISPKLYPNEQWNESEALGAITWLWYQSPTHRQVPIVEMMTYILPVLKNGQFALFCKGTQPIGYISWAYFDEVAQAHYLESDRHLRDNSDWNCGDNIWLIQWFAPLGHSHQMRSAVRQLFPSTTVRALYHKGSDKGLRILTFKT | not soluble |
| MPITRTGLPHAVASTSQTQETSQASASQGVLDPGTVPPRRAETFDGLSALPNDLRREIAQRCGPRSLVRLGSVSRQMAEDTRDVRAFLTARPRYDPSLEFGDVHSAESMRVALDEVTHFPYPDDEDRSEQILRGYGRLAARIPSLPQAQRFEAFTAVLNHATRHSGNMAFRVVARLTDDLGCLPEDLRALAFHAILPSLIATRRQALQAAAGAAHVGHIGAVAEADAGGVQGDGEPGPQGAVAPAQGGAAGGIGGALPFNLLASAIRHLPEEAVNLAITEAAALQTGPRLLAEVTLRLHLVGLEPIHRFQQAYAQLAEHLARSGDGAEALTHLVALLNRLPNPGVRQAAFRELTRAVHALDSTESGAAVLRRLAGALPHQPAAVRYLCSLDVLAAAASLFPSEQIPVIAAVRAQAAAIPNQAAELIARCDDAIATASMMLATVSRRYMDM | not soluble |
| MPKETFFNLPKDKRNLIISAAMDEFSKAGYNTASINQICKKSNIPKGSFYQYFTDKLDLYVYIMTLTIEEKIKFFSSAIAEFHTLTFLEQFRLLFLKGLEFAKKHPQYAALADQFSKEDNESVKSAVIKEGDKQAESLFMQMIHNAKTKGEIDSKVDSLALCLLLQSLNSAVNKYMIGKFGGISYEYNQEDINNFVDSLLDIIFSGIQNKAD | not soluble |
| MPKHCSHLIIIPDGKMAAIPFEALIEKRPKHDTSSYAQMGFMIKKYATSYTYTASLYENTHEAAKVKKVLLFAPVDFSASSDLNALPGTLAEVDTLTSLCTNTAQADVYTYTAASKAVLVSDSLSGYSIIHLATHGLVDEEQPELSCIYTSGTSEENDRIYAGDMYNMHLNAALVSLSACQTGLGKIEKGEGMIGLSRALFYAGADNIMVSLWKVSDLSTQVYMQYFYSIYLSENFTTFAEAARISKIKLLNSETFNSPYYWAAFILIGKLEHHHHHH | not soluble |
| MPKIILVSHSKEIASGTKSLLKQMAGDVDIIPIGGLPDGSIGTSFDIIQEVLTKLEDDALCFYDIGSSEMNVDMAIEMYDGNHRVLKVDAPIVEGSFIAAVKLSIGGSIDDALAEIKQSFLEHHHHHH | soluble |
| MPKKVLIFCDPGIDDTMALLLAFFIDEIEIVGIVADYGNVPKKMAVENAHFFNNETKNRNIKIFGGSERPLTGAPPAFFTDVHGKQGLGPIIPKVNVTNGEMENFFEVIPLIEQYKDELIIVSLGRLTSLAILFIMCKQLMKQIKSYYVMGGAFLHPGNVTPISEANFYGDPTAANIVLQSTANMYIYPLNVTQYSIITPEMAEYIEAKGKAPLVKTLFDHYYYGYYKDALPHLKGSPFHDTIPILALLDNSMFTYHKSPIVVMTESYAQGASIGEFRSLGESKPFIDWPSHQIAIDFDYNRFFKHFMSLMTGEQF | not soluble |
| MPKSKSQKNKLRPRDSKGRFTPLAKAKRTVVSRSRSRSRSASRGARQSRSVGRPMSRRNSVRSISTHTAKSPSLVLVISGSPSPRRRRPSTRRSSSRRSVVRSVSRGSKGRRSSSRGSVYGRTGRSRSSKRSRSRSRPRTRSGSRSSSRSRSGSRRSSRRRSRHRSSSKARGRRASTAKKTPAKRRSRSRSQQKVKRSMSRKG | soluble |
| MPKSNPVTPNKQPSEDWNELLTEFRGKGGRALQKTFIRKLWAVQEDIIANANPSTLRCIFFAPALLICPEGIKLSAEILPKIGVGNGLILLEKLILKFNLTDTECQRYGEVFVTAWRNAYQEANFDLTEELETDVISVMCQHALYAHRPTCTKFQNVIAAFAHAKKLDKSVDEMVTRLLNGCLYRALDAPNYIVQSSAAEVFFNFYPLIGEDTEDMDRIMENQHRYMMDLLRSDVISIRSEATKHVLKAISEFWLLIPKNIVKELMGYIIDTVAKDTVVSVRVAVFEGLNEMAFVPACLTAFEYGLKCAVDPALQDKSERVRLAAYQIISRLKNHKFISVFDIITRDDAIAKLDLENVETCRRQLIPIMHICLPISKSLDEAYYRPRVNYMLGKSRLALLSYFRLLGPMKIIDASQASKLIEMFITWAYRYLRKKDGPPLPETAEGYKKARAYLECALILYMSCKGMLMSDGDGTSKAKCDQIFGKVVKEIFEKYANTPILGTATAISSVIPKDYLKSIANDVLARLEDDDVPPEAVEPFLESAIHFNPDSVFDSFDSGLNVLVNLYGTKQSKKKRRELEDPEDVLIMTLNRLKYLLQSHSTSNLIAMKDEYRTKVLDLLKKIDLIREGIEIRLAKEEGQEHTLSDDVLLSILEFRFILPFFAATNGSEDAADRNQTIESMKNLLLWFEKNISSQMATFGEHNQDFLIQLTSTFLNCVNVSLSAYDFKTRPVEFEDEEDNENRDPREENDAAKDQATVAEVISRIVKSFCNSSTPFEIFRPALRVGTTLCDESYSEVHHEMALLLRFIPKWMNKQCDLMEDDEENIFKNHREIVESLRQFHKRVSETDYWDEDSAKRMMHHFMLFSIVSASSKNDDEAYDDPRDEDYKPPHFISLALIKFILKEKSLTEDIIEEISTNYIPEDSKYFTAEEGELKTDEKLSKLAALSQLLRILERYSKFHGKLIKEAIDKCTTRVLDCFANASDLNTVAHHILNSLSSLLDVQLPDENRL | not soluble |
| MPKSNRRIVRARDSKGRFLPGKKAKSVASKSRSRSRSRSVVSRKTTRTNSLTRRRSSTKAPSSARQSRSRSRSRSRSRSKSRSTSSRRSRSRSARRVSFKRGRPASFAMKSPEEKTAAKKTAAKIILRVD | not soluble |
